Results on 2 molecules are retold here after doi:10.1101/2022.01.05.475133 (bioRxiv, 2022).

The target in one series is FLAG-MBP-WT human TRPA1 (human, UniProt O75762 1-1119). Kind of series: pull-down + co-IP.
The series “SEC” concerns the molecule itself. In words: SEC. On the technique in general: Size exclusion chromatography separates by hydrodynamic size, large species first.
Series [1] concerns the target 3xFLAG-tagged WT human TRPA1 (human, UniProt O75762 1-1119). In words: co-IP + SEC.

B1: Strep-MBP-R919* human TRPA1 (domain or fragment, UniProt O75762 1-918, looked up)
chain: MKRSLRKMWRPGEKKEPQGVVYEDVPDDTEDFKESLKVVFEGSAYGLQNFNKQKKLKRCDDMDTFFLHYAAAEGQIELMEKITRDSSLEVLHEMDDYGNTPLHCAVEKNQIESVKFLLSRGANPNLRNFNMMAPLHIAVQGMNNEVMKVLLEHRTIDVNLEGENGNTAVIIACTTNNSEALQILLKKGAKPCKSNKWGCFPIHQAAFSGSKECMEIILRFGEEHGYSRQLHINFMNNGKATPLHLAVQNGDLEMIKMCLDNGAQIDPVEKGRCTAIHFAATQGATEIVKLMISSYSGSVDIVNTTDGCHETMLHRASLFDHHELADYLISVGADINKIDSEGRSPLILATASASWNIVNLLLSKGAQVDIKDNFGRNFLHLTVQQPYGLKNLRPEFMQMQQIKELVMDEDNDGCTPLHYACRQGGPGSVNNLLGFNVSIHSKSKDKKSPLHFAASYGRINTCQRLLQDISDTRLLNEGDLHGMTPLHLAAKNGHDKVVQLLLKKGALFLSDHNGWTALHHASMGGYTQTMKVILDTNLKCTDRLDEDGNTALHFAAREGHAKAVALLLSHNADIVLNKQQASFLHLALHNKRKEVVLTIIRSKRWDECLKIFSHNSPGNKCPITEMIEYLPECMKVLLDFCMLHSTEDKSCRDYYIEYNFKYLQCPLEFTKKTPTQDVIYEPLTALNAMVQNNRIELLNHPVCKEYLLMKWLAYGFRAHMMNLGSYCLGLIPMTILVVNIKPGMAFNSTGIINETSDHSEILDTTNSYLIKTCMILVFLSSIFGYCKEAGQIFQQKRNYFMDISNVLEWIIYTTGIIFVLPLFVEIPAHLQWQCGAIAVYFYWMNFLLYLQRFENCGIFIVMLEVILKTLLRSTVVFIFLLLAFGLSFYILLNLQDPFSSPLLSIIQTFSMMLGDINY
By stoichiometry N is commonly meant a count of units in the complex or per binding partner. On to B1, for which the “stoichiometry N” value with FLAG-MBP-WT human TRPA1 is 1.3 R919* subunits per WT subunit.

B2: GFP-tagged WT human TRPA1 (natural protein, UniProt O75762 1-1119, looked up)
chain: MKRSLRKMWRPGEKKEPQGVVYEDVPDDTEDFKESLKVVFEGSAYGLQNFNKQKKLKRCDDMDTFFLHYAAAEGQIELMEKITRDSSLEVLHEMDDYGNTPLHCAVEKNQIESVKFLLSRGANPNLRNFNMMAPLHIAVQGMNNEVMKVLLEHRTIDVNLEGENGNTAVIIACTTNNSEALQILLKKGAKPCKSNKWGCFPIHQAAFSGSKECMEIILRFGEEHGYSRQLHINFMNNGKATPLHLAVQNGDLEMIKMCLDNGAQIDPVEKGRCTAIHFAATQGATEIVKLMISSYSGSVDIVNTTDGCHETMLHRASLFDHHELADYLISVGADINKIDSEGRSPLILATASASWNIVNLLLSKGAQVDIKDNFGRNFLHLTVQQPYGLKNLRPEFMQMQQIKELVMDEDNDGCTPLHYACRQGGPGSVNNLLGFNVSIHSKSKDKKSPLHFAASYGRINTCQRLLQDISDTRLLNEGDLHGMTPLHLAAKNGHDKVVQLLLKKGALFLSDHNGWTALHHASMGGYTQTMKVILDTNLKCTDRLDEDGNTALHFAAREGHAKAVALLLSHNADIVLNKQQASFLHLALHNKRKEVVLTIIRSKRWDECLKIFSHNSPGNKCPITEMIEYLPECMKVLLDFCMLHSTEDKSCRDYYIEYNFKYLQCPLEFTKKTPTQDVIYEPLTALNAMVQNNRIELLNHPVCKEYLLMKWLAYGFRAHMMNLGSYCLGLIPMTILVVNIKPGMAFNSTGIINETSDHSEILDTTNSYLIKTCMILVFLSSIFGYCKEAGQIFQQKRNYFMDISNVLEWIIYTTGIIFVLPLFVEIPAHLQWQCGAIAVYFYWMNFLLYLQRFENCGIFIVMLEVILKTLLRSTVVFIFLLLAFGLSFYILLNLQDPFSSPLLSIIQTFSMMLGDINYRESFLEPYLRNELAHPVLSFAQLVSFTIFVPIVLMNLLIGLAVGDIAEVQKHASLKRIAMQVELHTSLEKKLPLWFLRKVDQKSTIVYPNKPRSGGMLFHIFCFLFCTGEIRQEIPNADKSLEMEILKQKYRLKDLTFLLEKQHELIKLIIQKMEIISETEDDDSHCSFQDRFKKEQMEQRNSRWNTVLRAVKAKTHHLEP
B2: the “stoichiometry N” value (in “SEC”; in series [1]) was 4 each time.
